This passage reports amyloid nucleation score results from the supplement of paper PMC12042874.

± gives the uncertainty stated by the source.

The nature of this data set: amyloid nucleation score (Sup35N fusion, yeast selection) (log enrichment); library NNK2; higher = more nucleation; inactive = no reads after selection. In a few lines:
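The nucleation score, computed with DiMSum, is the log enrichment of output over input reads, centred on the mode score of non-aggregating sequences. Sequences with under 100 input reads were dropped. Reads were generated by Illumina sequencing of plasmid inserts from psi-negative yeast with Sup35N fused to peptides of 20 random codons, induced with 100 μM copper sulfate for 24 hours and grown 7 days at 30°C on medium lacking adenine and uracil.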
In turn, TVYPCMYGGLGHRERHLSMS returned an amyloid nucleation score of 5.06 ± 0.063.

For the substance PYSVTEHICGIWLVWCIVGS, the amyloid nucleation score was -0.418 ± 1.1. As to WTQGFYTFSDHAPLVIILLE, the amyloid nucleation score entry is “inactive”.

Take MIWGVT: the amyloid nucleation score was found to be 1.01 ± 0.4.

For the substance GSSAYITLLHYEILNLRLLC, the amyloid nucleation score is 4.12 ± 0.079. With RERCC the entry was “inactive”. The value for YNQVYES was 2.84 ± 0.054; that for LSGMIGSSWAFVSLALIRYQ was -0.798 ± 0.64; that for HYCYRHIGRLQMWMKSGLHA was 1.04 ± 0.34. The value for IPVYVAVIVG was “inactive”; that for GLMTYFSSVESGEHTDRNLS was -0.732 ± 0.33; that for DNFYCHHVDLFSWMIRADLA was -0.847 ± 0.64.

As to YFCERWMLSCIGGLFVNFLY, the amyloid nucleation score was determined as 0.168 ± 0.15. With ASMKGYV, the amyloid nucleation score was 0.148 ± 0.5. In the case of CAISYSFPGIFRQWCVFPDG, the amyloid nucleation score was -0.593 ± 0.33. With LAIVLRGNFTIVSTAIE the figure was 3.26 ± 0.1; with FWGIVKYMWIFSTTYLNVFL, 3.22 ± 0.11; with FASSEVYTGVSYIIHVSVYS, -0.714 ± 1. With LPTWYVLVPLMDYIYYLFKE the figure was -0.536 ± 1; with RYAYLFGPGRCWMFLSVFPY, 4.2 ± 0.069.

For SNFLVYS, the amyloid nucleation score is -0.636 ± 0.61. With IIYYMTVCQDSIDRIVPFCN the figure was 2.01 ± 0.14; with CFFPDSVTTELKKIKTL, -0.692 ± 0.41. With VVMNLMEFMVRVSVLDNAEG the figure was 4.47 ± 0.075; with YNGRAIEHCQSMVSFRAVSR, -0.041 ± 0.6; with VSVNSGSVKLFVIPACCSYD, 6.099 ± 0.055. With FFKGLSKSIQVGL the figure was -1.06 ± 0.56. As for SRAKNLHSFKSNMCDAFSYN, the amyloid nucleation score result was “inactive”. With CVMMLSSFLQRCRRVVLDSR the figure was 0.325 ± 0.56; with KGGWYNNYGAVNKNGWCSDK, -0.501 ± 1.1. For IIFPGCKYLRYKDKEK, the amyloid nucleation score entry was “inactive”.

As for WFMSIMSKYCRVSF, the amyloid nucleation score was -0.149 ± 0.79. With FSVFTD, the amyloid nucleation score was -0.678 ± 0.61. On to GCCWEKSASRSAETYWSGRA, for which the amyloid nucleation score was found to be 3.06 ± 0.14. On to YYRYRHLMHLIKWME, for which the amyloid nucleation score came to 0.216 ± 0.53. VKFCVWCGD came in with an amyloid nucleation score of 7.039 ± 0.06. Regarding CSVWWLWSLRM, the amyloid nucleation score amounted to 1.13 ± 0.43. As for WTWGALDRRSGLFEVGGMYF, the amyloid nucleation score is 0.449 ± 0.47. Take LFTKRRW: the amyloid nucleation score was found to be 0.87 ± 0.46. FSWASAQLIHSV came in with an amyloid nucleation score of 0.59 ± 0.64. For LNQSDLLADFLVLI, the amyloid nucleation score was determined as 0.474 ± 0.31. For RSVPYSLCSMQLCTFHFEHS, the amyloid nucleation score stood at 8.384 ± 0.028. On to YLLIPWKSKDPLHIGLLF, for which the amyloid nucleation score is -0.381 ± 1.1. With RLLFVWV the figure was 4.12 ± 0.087; with MVLNIDCFCDFYLALSCMSI, 5.58 ± 0.079; with CSLMNNRVHFVWSHRRMSGT, 0.276 ± 1. Turning to RCVGNCMMSLRAEYD, the amyloid nucleation score was 2.8 ± 0.079.

For NRDTM, the amyloid nucleation score is -1.13 ± 0.37. Consider LFWHLHSNFIADVLLNVRLC, for which the amyloid nucleation score was found to be 1.13 ± 0.53. The value for RVSTNGFVSQPMRWYVIVDS was -0.142 ± 0.25.

For AGVSLFVHGNL, the amyloid nucleation score worked out at 4.45 ± 0.095.

Turning to VGLFGWRGKEGF, the amyloid nucleation score is -0.033 ± 0.76. In turn, WPIMMYGKFVFDRHIHCGAL gave an amyloid nucleation score of 0.141 ± 0.41. With YLTLTYPLLCLALNNLSVVL the figure was 2.38 ± 0.15; with VNDCYIILISIQALKGPICF, 0.465 ± 0.8; with FAEFKVQIYLSWLYPEIPVN, -0.455 ± 1.1. For the substance VNMYSWVKVCWEILYTDRAG, the amyloid nucleation score was -0.906 ± 0.41. The value for SIKCEFELIDLTSQAPCEGQ was 0.611 ± 0.5; that for SSLCIRSAL was -0.092 ± 0.63; that for NCYMSVLILVRLLGSHLKQS was -0.249 ± 1.1.

As for CWTEY, the amyloid nucleation score was -0.589 ± 0.3.

In the case of PTGCLMICNSFVIDSVRRRP, the amyloid nucleation score was 7.812 ± 0.032.

VGSLYICDLAPGKHKYCSVV showed an amyloid nucleation score of 0.266 ± 0.56.

With SGVLVCVWTRS, the amyloid nucleation score is -1.24 ± 0.49. The value for TGALHWVNAYVLFRKVCKGM was 0.297 ± 0.26; that for HRFSLRNHCRSFSSGHLVHN was -1.24 ± 0.75; that for SSKFTHDYGGEDIVIDQDES was 0.14 ± 0.53. The value for LWLGLFGCVVLHGFRIKMAL was 0.251 ± 0.35. With SKLMQVRRGVLSGYLSESDE the figure was -0.149 ± 0.55; with AVCVENLCPWV, 1.82 ± 0.11; with NWGWSAILKPLRFAVFRPWN, 0.336 ± 0.6. Consider CWFHGLWIRGVDNSSVYWMD, for which the amyloid nucleation score was -0.466 ± 0.65. The substance SCPNYTVSIWIYMPFFSWLR yielded an amyloid nucleation score of 2.81 ± 0.08. FDWMI yielded an amyloid nucleation score of 0.926 ± 0.28. RRSGGPGEDGGSYERQFTSR: the amyloid nucleation score is 0.95 ± 0.32. With GHTPCPHNVVRTHVLSWHGL the figure was 7.021 ± 0.042. With LTRKKKMQFF the entry was “inactive”; with QKLIRWCVKLG, 4.24 ± 0.062. With TCLVCVTEVAHDSHLNRVSH the figure was 7.08 ± 0.082; with LVVVKFTEVKALCFSVWGMG, 1.05 ± 0.57; with PKRLKSSYLD, -0.208 ± 0.37. GAIIGIAGVPKGLSNSHSDG: the amyloid nucleation score was -0.606 ± 1.1. As for LTPLSNIGCTCDYLMDCSYL, the amyloid nucleation score entry is “inactive”. With LVRLFS the figure was -0.701 ± 0.63; with KDDSQLVLRDRPSRLWRLKE, 0.804 ± 0.53. With DKTVIPLCFLHFNRT the figure was -1.35 ± 0.78; with FVVIWAMDIDVLWSMGGKID, 5.46 ± 0.061. With RRGHVL the figure was 1.82 ± 0.21. The substance GWAKPMGFNLILR returned an amyloid nucleation score of 0.265 ± 0.31. With VSNRVLEMVSKEVASAKNQL the figure was 0.288 ± 0.34. Consider LATKMSRGYSIRDWS, for which the amyloid nucleation score is 0.052 ± 0.24. Regarding TYKCLTRATKGRNHVFRFCV, the amyloid nucleation score is 1.08 ± 0.15. With TIWFFFL the figure was 7.075 ± 0.043.

As for CSSYHLEYKCYKHLLWFQSR, the amyloid nucleation score was -0.306 ± 0.3. The value for SWFRMSVWSSLRAHMNASNT was -0.198 ± 0.28; that for AGPWGVSTFYAVHLLASLYP was -0.446 ± 0.79; that for VDVPMNMIRWSQCNQ was 1.22 ± 0.59. As for SLWLSEVVCMDTVHQEIIMA, the amyloid nucleation score was -0.163 ± 0.42. The value for LSHLLDGGISLKEGYILWMM was -0.252 ± 0.55; that for FCHCFRGYARDHHRMTQLGN was -0.674 ± 0.76. With MLVCRWNACSVVLSVSGLAR the figure was 0.718 ± 0.21; with DTPCSYISCMCNTIL, 9.453 ± 0.03; with GHCFISEFLGRRVA, 2.36 ± 0.08. With SSMLYTYVRLMNMNNIYVAS the figure was 0.737 ± 0.62; with NYSGLDERPVWVFWYLVFEY, -1.09 ± 1.1; with VGDQF, “inactive”. In the case of PNACPFWCLGRV, the amyloid nucleation score is -0.439 ± 0.63.

For the substance FLKCNLTVDLIVMMKNIFSY, the amyloid nucleation score came to 1.02 ± 0.39. With SNVLTVIVCYTKAWINKSFM the entry was “inactive”; with CVSVGCVESGTMICQLKLSQ, 7.19 ± 0.075; with FTQTSTVPSKETALALNLMR, 0.688 ± 0.57. Consider FRFANRVTIKSFLGV, for which the amyloid nucleation score entry is “inactive”. In turn, YNSNNRAILSLLHDQRNLYG registered an amyloid nucleation score of 0.643 ± 0.16. For the substance NEYGLLYVFIPSSISPLADI, the amyloid nucleation score was -1.5 ± 1.1. With SFRKILESWKDAYLYDPALT the figure was 0.113 ± 1.1; with TLLIMCGSISHSFPSECHWL, 0.716 ± 0.15; with IGILSREGYWGGNRFLGYQL, -1.32 ± 0.62.

The substance TMVMTVQPPLHLFCLDLMHD yielded an amyloid nucleation score of 2.24 ± 0.12. For the substance YVEVLSKVAWASDCSRIEYA, the amyloid nucleation score was -0.342 ± 1.1. With TDVIYYGYLSRRLQVYVLPS the figure was -1.55 ± 1.1.

With HQVFPAKAGLPALVYLLGFY, the amyloid nucleation score is 0.602 ± 0.81. YRRLCWPWFRKLFEVYRDN: the amyloid nucleation score was -0.554 ± 0.63. VRYTVTRTRGRYMVKCCENV: the amyloid nucleation score is 0.108 ± 0.2. On to QFLAIFCSIT, for which the amyloid nucleation score is 7.684 ± 0.043. The value for STFLKATYRSHRRHW was 0.962 ± 0.39. The value for YFRLLISCQNRLLVRKLRAA was -0.021 ± 0.79; that for FSTCVVSGSSLYCGGLTLVH was “inactive”. The value for MDCILNYFFVLLLGHGNLLM was -0.826 ± 0.54; that for THVECALMTYPDVYSDEGFI was -0.001 ± 0.32.

Regarding IFHLGLRR, the amyloid nucleation score was 5.706 ± 0.053. As to GRLYHGVVTCSGRNGINRGS, the amyloid nucleation score was 2.92 ± 0.19. With STVTVGHNSHVCAFIF the figure was -0.326 ± 0.54.

As to DVLEIFVMTRGIVEVNPDSN, the amyloid nucleation score worked out at 8.665 ± 0.031. The value for FMKSNWIGTT was -0.909 ± 0.39; that for SFDFLSLLSDRCLVLDVSPN was 0.761 ± 0.46. On to PTDHSTEVSLRFCCRGVSEL, for which the amyloid nucleation score was -0.403 ± 0.46. In turn, QSFNVCCWLGEMDVLYSSIT returned an amyloid nucleation score of 8.997 ± 0.038. VDVRMDEWVDRTAFAWMMRV: the amyloid nucleation score was 0.875 ± 0.43. Consider FPLWSCSHTIINML, for which the amyloid nucleation score was determined as 5.858 ± 0.037.
